T1: biotin-PDGF-bb (human), P01127
T1 chain: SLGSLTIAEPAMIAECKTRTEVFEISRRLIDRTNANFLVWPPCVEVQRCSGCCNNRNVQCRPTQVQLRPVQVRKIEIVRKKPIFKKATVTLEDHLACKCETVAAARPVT


Columns and labels:
[1] = target: biotin-VEGF-A (8-109) (human); assay: SPR; […]; Biacore S200, […] (PBS with 0.05% Tween 20, pH 7.4); […]
[2] = target: T1, biotin-PDGF-bb (human), P01127; assay: as above

Chain of biotin-VEGF-A (8-109) (human) (P15692 whole entry): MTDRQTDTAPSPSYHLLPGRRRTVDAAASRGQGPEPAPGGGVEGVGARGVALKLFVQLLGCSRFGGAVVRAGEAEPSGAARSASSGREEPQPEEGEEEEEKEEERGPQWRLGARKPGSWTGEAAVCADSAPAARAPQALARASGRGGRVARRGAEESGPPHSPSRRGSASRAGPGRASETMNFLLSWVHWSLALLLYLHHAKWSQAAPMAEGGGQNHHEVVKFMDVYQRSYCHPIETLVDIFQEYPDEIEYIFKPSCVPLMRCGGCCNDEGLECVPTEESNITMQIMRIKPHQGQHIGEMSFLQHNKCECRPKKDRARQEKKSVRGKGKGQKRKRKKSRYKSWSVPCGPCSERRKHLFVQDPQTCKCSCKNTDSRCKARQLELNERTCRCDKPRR

Binder | Kd [1] [µM] | Kd [2] [µM]
GCTTPWVPHHIMCKQDSDCLAGCVCGPNGFCG (designed binder) [V-EET-1] | > 20 | 
GCQTPWFPHQILCKQDSDCLAGCVCGPNGFCG (designed binder) [V-EET-2] | > 30 | 
GCMTPWFPFTINCKQDSDCLAGCVCGPNGFCG (designed binder) [V-EET-3] | > 1.5 | 
GCFDDNPFIACKQDSDCLAGCVCWYDTWCG (designed binder, modifications not checked) [P-EET-6] |  | > 6.7
GCSHWLQEMFGFCKQDSDCLAGCVCEISETCG (designed binder, modifications not checked) [P-EET-2] |  | > 20
VGECSQPWFINMCNMVDCCSQFGYCGKGPKYCG (designed binder) [V-AMP-1] | > 3.6 | 
GCAGKSCKKWSSVHCDAGCFCQIGQQVVYIPGCV (designed binder) [V-MCH-1] | > 50 | 
